Assay results published in patent US20050214212A1.
Residue numbers refer to the chain shown, from its start.

B1: hMAb BIWA 4 (bivatuzumab), humanised CDR-grafted antibody without framework modifications (antibody, human IgG1, kappa, V domains shown)
VH: EVQLVESGGGLVKPGGSLRLSCAASGFTFSSYDMSWVRQAPGKGLEWVSTISSGGSYTYYLDSIKGRFTISRDNAKNSLYLQMNSLRAEDTAVYYCARQGLDYWGRGTLVTVSS
VL: EIVLTQSPATLSLSPGERATLSCSASSSINYIYWYQQKPGQAPRLLIYLTSNLASGVPARFSGSGSGTDFTLTISSLEPEDFAVYYCLQWSSNPLTFGGGTKVEIKR
B2: hMAb BIWA 8, humanised CDR-grafted antibody with framework modifications (antibody, human IgG1, kappa, V domains shown)
VH: B1 VH
VL: B1 VL with Y35L, L45I

Key:
[1] = target: CD44v6 (human CD44 variant isoform containing exon v6) on human tumour cells (human) (UniProt P16070); test: immunoreactivity assay of clinical 99mTc-/186Re-MAG3-labelled BIWA 4 batches on fixed UM-SCC-11B cells
[2] = target: CD44v6 (human CD44 variant isoform containing exon v6) on human tumour cells (human) (UniProt P16070); test: immunoreactivity assay, 131I-labelled MAb on glutaraldehyde-fixed UM-SCC-11B cells, experiment 3
[3] = target: glutathione-S-transferase fusion protein containing domains v3-v10 of human CD44 (human) (UniProt P16070); test: SPR (BIAcore 2000), GST/CD44v3-v10 immobilised on CM5, MAb 8-67 nM injected
[4] = target: glutathione-S-transferase fusion protein containing domains v3-v10 of human CD44 (human) (UniProt P16070); test: SPR (BIAcore 2000), GST/CD44v3-v10 immobilised on CM5
[5] = target: CD44v6 (human CD44 variant isoform containing exon v6) on human tumour cells (human) (UniProt P16070); test: immunoreactivity assay on fixed UM-SCC-11B cells, linear extrapolation to infinite antigen excess, experiment 2
[6] = target: CD44v6 (human CD44 variant isoform containing exon v6) on human tumour cells (human) (UniProt P16070); test: immunoreactivity assay, 131I-labelled MAb on glutaraldehyde-fixed UM-SCC-11B cells, experiment 2
[7] = target: glutathione-S-transferase fusion protein containing domains v3-v10 of human CD44 (human) (UniProt P16070); test: ratio of affinities from SPR on GST/CD44v3-v10
[8] = target: CD44v6 (human CD44 variant isoform containing exon v6) on human tumour cells (human) (UniProt P16070); test: immunoreactivity assay on fixed UM-SCC-11B cells, linear extrapolation to infinite antigen excess, experiment 3
[9] = target: CD44v6 (human CD44 variant isoform containing exon v6) on human tumour cells (human) (UniProt P16070); test: immunoreactivity assay, 186Re-MAG3-labelled MAb on fixed UM-SCC-11B cells
[10] = target: CD44v6 (human CD44 variant isoform containing exon v6) on human tumour cells (human) (UniProt P16070); test: immunoreactivity assay, 125I-labelled MAb on glutaraldehyde-fixed UM-SCC-11B cells, experiment 3

Sequence of glutathione-S-transferase fusion protein containing domains v3-v10 of human CD44 (human) (P16070 267-604): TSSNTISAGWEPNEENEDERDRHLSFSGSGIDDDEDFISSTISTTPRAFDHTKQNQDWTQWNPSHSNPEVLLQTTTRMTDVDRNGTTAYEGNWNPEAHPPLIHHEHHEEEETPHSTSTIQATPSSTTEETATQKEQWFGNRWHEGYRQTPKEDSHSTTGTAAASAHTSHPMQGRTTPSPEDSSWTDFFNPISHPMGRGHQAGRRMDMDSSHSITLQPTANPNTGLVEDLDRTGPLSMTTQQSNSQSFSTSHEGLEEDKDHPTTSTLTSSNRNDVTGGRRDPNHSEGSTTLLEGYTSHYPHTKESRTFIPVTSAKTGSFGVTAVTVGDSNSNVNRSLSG

immunoreactive fraction [1] | Binding to 5 × 10^6 cells (%) [2] | Kd [3] | koff [3] | kon [3] | Kd relative to murine BIWA 1 [4] | Binding Extrapolated (%) (immunoreactive fraction) [5] | Binding to 5 × 10^6 cells (%) [6] | fold lower affinity than cMAb BIWA 2 [7] | fold lower affinity than hMAb BIWA 8 [7] | Binding Extrapolated (%) (immunoreactive fraction) [8] | immunoreactive fraction [9] | Binding to 5 × 10^6 cells (%) [10] | Binder
> 80% | 77.3% | 3.4 nM | 0.00022 s⁻¹ | 65000 M⁻¹ s⁻¹ | 10.5 | 82.3% | 77.4% | 14 fold | 4 fold | 74.5% | > 75% | – | B1
– | – | 0.84 nM | 6.3e-05 s⁻¹ | 75000 M⁻¹ s⁻¹ | 2.6 | – | – | – | – | 92.1% | > 75% | 91.8% | B2
